This series deals with the molecule itself. As to the kind of experiment: transmission electron microscopy; peptide solution at its CMC on a copper grid, stained with phosphotungstic acid; monomers to fibres.

B1: PPI42 (peptide)
chain: GFGCNGPWSEDDMKCHNHCKSIKGYKGGYCAKGGFLCKCY
notes: mutant of the fungal defensin plectasin (40 amino acids); numbers count on: the mature protein; Forms fibrils and gels by self-assembly; also called self-assembling variant PPI42; defensin-derived peptide PPI42; source: Pichia pastoris X-33 (pPICZαA), fermentation supernatant, purified by cation exchange chromatography
For B1, the binding result is “binds”.

B2: PPI45 (peptide)
chain: GFGCNGPWNEDDMKCHNHCKSIKGYKGGYCAKGGFLCKCY
notes: mutant of the fungal defensin plectasin, derived from PPI42 by S9N; numbers count on: the mature protein; S9N against the parent PPI42; also called PPI45:N9; source: Pichia pastoris X-33 (pPICZαA), fermentation supernatant, purified by cation exchange chromatography
Turning to B2, the binding result is “binds”.

B3: PPI47 (peptide)
chain: GFGCNGPWSEDDLRCHNHCKSIKGYKGGYCAKGGFLCKCY
notes: mutant of the fungal defensin plectasin, derived from PPI42 by 13M14K to 13L14R; numbers count on: the mature protein; M13L and K14R against the parent PPI42; also called PPI47:L13 R14; source: Pichia pastoris X-33 (pPICZαA), fermentation supernatant, purified by cation exchange chromatography
Consider B3, for which the binding result is on record as “binds”.

Source of the values: publication PMC11764660, “Self-Assembled Peptide Hydrogels PPI45 and PPI47: Novel Drug Candidates for Staphylococcus aureus Infection Treatment” (Gels, 2025).
